Results published in patent US20220040319A1 (Regeneron, published 2022).

B1: H4H13313P2 (antibody, human IgG4, V domains shown)
VH: QVQLVESGGGVVQPGRSLRLSCSASGFSFSHFGMHWVRQVPGGGLEWVTSIWFDGSNRYYADSLKGRFTISRDNSKNTLYLEMNSLRAEDTAVYYCVREGILGTTNPYDVFDVWGQGTMVTVSS
VL: not shown
B2: H4H13325P2 (antibody, human IgG4, V domains shown)
VH: EVQLLESGGGWVQPGGSLRLSCAASGFAFSNYAMNWVRQTPGKGLEWVSVISSSGGNTYYADSVKGRFAISRDNSRDTLHLQMNRLRVEDTAVYYCAKEIRPYYDLSYYYGMDVWGQGTTVTVSS
VL: not shown
B3: H4H13302P2 (antibody, human IgG4, V domains shown)
VH: QVQLVESGGGVVQPGRSLRLSCAASGFTFSNFGMHWVRQAPGKGLEWVAGIWFDGSNKNYIDSVKGRFTISRDNSKNTLYLQMNSLRAEDTAVYYCAREGYDSGTDYIPYDIFDIWGQGTMVTVSS
VL: not shown
B4: H4H13316P2 (antibody, human IgG4, V domains shown)
VH: EVQLVESGGGLVQPGGSLRLSCAASGFTFRSYVMSWFRQAPGKGLEWVSGMSGSGGSTSYADSVKGRFTISRDNSKNTLYLLMNSLRTEDTAVYYCAKENGANWNYGYYGMDVWGQGTTVTVSS
VL: not shown
B5: H4H13312P2-Maytansinoid A (antibody, IgG4, V domains shown)
VH: EVQLVESGGGLVQPGGSLRLSCAASGFIVTTNYMTWLRQAPGKGLEWVSLIYSSGHTYYADSVKGRFTISRHNSKNTLYLQMDSLRAEDTAVYYCASAFAADVFDIWGQGTMVTVSS
VL: not shown
modifications: SMCC-DM1 (Maytansinoid A) linker-payload conjugated to the antibody; residues not stated
B6: H4H13312P2-Maytansinoid B (antibody, IgG4, V domains shown)
VH: B5 VH
VL: not shown
modifications: Maytansinoid B (Compound 1, FIG. 20) linker-payload conjugated to the antibody; residues not stated
B7: H4H14635D-Maytansinoid B (bispecific antibody, V domains shown)
VH 1: QVQLVESGGGVVQPGRSLRVSCVVSGFTFSSFGMHWVRQAPDKGLEWVAVIWYDGSNDYYSDSVKGRFTISRDNSKNTLFLQMNRLRAEDTAVYYCARANNWNRFDAFDLWGQGTMVTVSS
VH 2: B5 VH
VL: not shown
modifications: Maytansinoid B (Compound 1, FIG. 20) linker-payload conjugated to the antibody; residues not stated
B8: H4H14635D-Maytansinoid A (bispecific antibody, V domains shown)
VH 1: B7 VH 1
VH 2: B5 VH
VL: not shown
modifications: SMCC-DM1 (Maytansinoid A) linker-payload conjugated to the antibody; residues not stated
B9: H4H13313P2 (antibody, human IgG4, V domains shown)
VH: B1 VH
VL: not shown
notes: human IgG4 Fc (H4H), bivalent monospecific
B10: H4H13325P2 (antibody, human IgG4, V domains shown)
VH: B2 VH
VL: not shown
notes: as for B9
B11: H4H13295P2 (antibody, human IgG4, V domains shown)
VH: B7 VH 1
VL: not shown
notes: as for B9
B12: H4H13301P2 (antibody, human IgG4, V domains shown)
VH: QVQLVESGGGVVQPGTSLRLSCVASGFTFRNFGMHWVRQAPGKGLEWVANIWFDGSNENYVESIQGRFTISRDNSKNTLNLQMNSLRAEDSAVYYCVREGILGTTNPYDAFDVWGQGTMVTVSS
VL: not shown
notes: as for B9
B13: H4H13331P2 (antibody, human IgG4, V domains shown)
VH: QVQLQESGPGLVKSSETLSLTCTVSGGSIRNFYWSWLRQPPGKGLEWIGHINYNGGTDYNPSLKSRVTISVDTSKNQFSLNLNSVTAADTAVYYCARQRFYGMDVWGPGTTVTVSS
VL: not shown
notes: as for B9
B14: H4H13291P2 (antibody, human IgG4, V domains shown)
VH: QVQLVESGGGVVQPGGSLRLSCAASGFTFSGYGMHWVRQAPGKGLEWMAVIWYDGSNDYYPDSVKGRFTISRDNSKNTLYLQMNSLRVEDTAVYYCARDAWDLLRSFDYWGQGTLVTVSS
VL: not shown
notes: as for B9
B15: H4H13302P2 (antibody, human IgG4, V domains shown)
VH: B3 VH
VL: not shown
notes: as for B9
B16: H4H13300P2 (antibody, human IgG4, V domains shown)
VH: QVQLVESGGGVVQPGRSLRLSCAVSGFTFSSYGMHWVRQAPGKGLEWVANIWYDGTNDYYPYSVKGRFTISRDNSQNTLYLQMNSLRAEDTAVYYCAREDFINYRSFDYWGQGTLVTVSS
VL: not shown
notes: as for B9
B17: H4H13316P2 (antibody, human IgG4, V domains shown)
VH: B4 VH
VL: not shown
notes: as for B9
B18: H4H13319P2 (antibody, human IgG4, V domains shown)
VH: QVQLVESGGGVVQPGRSLRLSCAASGFTFSSFAMHWVRQAPGKGLEWVAVIWYDGSNDYYAASVKGRFTISRDNSKNTLYLEMNRLRAEDTAVYHCARDNWNYWGGMDVWGQGTTVTVSS
VL: not shown
notes: as for B9
B19: H4H13299P2 (antibody, human IgG4, V domains shown)
VH: EVQLVESGGGLVQPGGSLRLSCAASGFIFSNYEMNWVRQAPGKGLEWISYITSSGNMKYYADSVKGRFTISRDNDKNSLYLQMSSLRVEDTAVYYCVRGGRFLEWLTYYVMVVWGQGTTVTVSS
VL: not shown
notes: as for B9
B20: H4H13318P2 (antibody, human IgG4, V domains shown)
VH: QVQLVESGGGVVQPGRSLRLSCVASGFSFSNFGMHWVRQAPGKGLEWVAIIWYDGSNKYYSDSVKGRFTISRDNSKNTLYLQMNSLRVDDTAVYYCARFDRWKFDAFDIWGQGTMVTVSS
VL: not shown
notes: as for B9

Target: T1, human MET on cells (human, UniProt P08581 25-1390)
T1 sequence (P08581 25-1390 limits assumed, form in doubt): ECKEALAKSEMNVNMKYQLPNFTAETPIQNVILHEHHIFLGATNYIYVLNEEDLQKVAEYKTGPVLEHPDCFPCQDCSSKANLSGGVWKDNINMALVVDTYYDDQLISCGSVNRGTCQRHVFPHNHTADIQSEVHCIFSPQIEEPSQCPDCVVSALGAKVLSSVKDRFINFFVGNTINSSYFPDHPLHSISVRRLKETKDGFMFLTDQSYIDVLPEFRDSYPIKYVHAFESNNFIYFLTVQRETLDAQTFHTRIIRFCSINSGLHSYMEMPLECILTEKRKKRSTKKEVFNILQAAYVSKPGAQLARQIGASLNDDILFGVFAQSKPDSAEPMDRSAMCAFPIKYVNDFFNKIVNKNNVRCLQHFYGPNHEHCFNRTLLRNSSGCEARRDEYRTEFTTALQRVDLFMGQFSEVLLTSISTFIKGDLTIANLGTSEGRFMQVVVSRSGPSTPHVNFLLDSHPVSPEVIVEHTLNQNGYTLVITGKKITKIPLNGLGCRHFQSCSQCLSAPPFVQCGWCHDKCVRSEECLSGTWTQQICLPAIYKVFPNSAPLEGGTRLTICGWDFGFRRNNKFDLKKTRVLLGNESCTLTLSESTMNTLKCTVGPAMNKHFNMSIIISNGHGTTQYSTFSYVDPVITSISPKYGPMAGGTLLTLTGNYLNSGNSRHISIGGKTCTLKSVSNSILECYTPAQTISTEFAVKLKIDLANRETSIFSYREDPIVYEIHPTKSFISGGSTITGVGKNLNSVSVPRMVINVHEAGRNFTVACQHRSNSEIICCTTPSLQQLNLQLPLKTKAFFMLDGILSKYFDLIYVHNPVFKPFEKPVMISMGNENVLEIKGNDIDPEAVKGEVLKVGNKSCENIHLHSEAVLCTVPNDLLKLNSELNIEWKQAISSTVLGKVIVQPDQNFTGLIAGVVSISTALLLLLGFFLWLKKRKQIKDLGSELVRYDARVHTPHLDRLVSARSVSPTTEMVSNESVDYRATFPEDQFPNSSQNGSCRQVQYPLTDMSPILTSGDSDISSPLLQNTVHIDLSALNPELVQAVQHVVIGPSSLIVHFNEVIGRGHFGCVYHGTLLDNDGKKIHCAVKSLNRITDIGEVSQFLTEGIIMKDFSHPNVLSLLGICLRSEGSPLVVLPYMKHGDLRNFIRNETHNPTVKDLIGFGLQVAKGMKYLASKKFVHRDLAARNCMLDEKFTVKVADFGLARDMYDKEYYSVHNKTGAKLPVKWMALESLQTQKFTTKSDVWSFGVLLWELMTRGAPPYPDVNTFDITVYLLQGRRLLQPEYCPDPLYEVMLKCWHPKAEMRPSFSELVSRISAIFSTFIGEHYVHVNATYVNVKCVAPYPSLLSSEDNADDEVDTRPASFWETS
Test: cell-based or functional assay
For % Inhibition, HEK293/SRE-Luc Blocking Activity (HGF, 1 h mAb pre-bind) in this document: test concentration or dose not given here.

In order of rising “% Growth Inhibition, SNU5 cells” value:
1. B1  34%
2. B3  40%
3. B4  53%
4. B2  57%

In order of rising “IC50, SNU5 growth” value:
1. B1  0.044 nM
2. B2  0.044 nM
3. B4  0.1 nM
4. B3  0.11 nM

Target: T1, human MET on cells
Test: cell-based or functional assay
Remark: another data set of the same source

In order of rising “IC50, 6-day in vitro cytotoxicity, A549” value:
1. B8  6.78 nM
2. B5  18.3 nM
3. B7  21.4 nM
4. B6  27.1 nM

In order of rising “IC50, 6-day in vitro cytotoxicity, EBC-1” value:
1. B6  0.07 nM
2. B7  0.26 nM
3. B5  0.39 nM
4. B8  0.76 nM

In order of falling “IC50, 6-day in vitro cytotoxicity, Hs746t” value:
1. B7  2.32 nM
2. B8  1.76 nM
3. B5  1.59 nM
4. B6  0.89 nM

In order of rising “Max % Kill, 6-day in vitro cytotoxicity, A549” value:
1. B7  72%
2. B6  85%
3. B5  89%
4. B8  91%

In order of rising “Max % Kill, 6-day in vitro cytotoxicity, EBC-1” value:
1. B5  95%
2. B6  95%
3. B7  96%
4. B8  96%

In order of rising “Max % Kill, 6-day in vitro cytotoxicity, Hs746t” value:
1. B8  86%
2. B5  87%
3. B7  89%
4. B6  90%

Target: T2, hMet.mmh (human MET extracellular domain with C-terminal myc-myc-hexahistidine tag) (human, UniProt P08581 309-914; P08581 27-307)
T2 construct: soluble monomeric MET; also called monomeric human MET
T2 sequence (P08581 other isoform, or with tags, fused parts or gaps limits assumed, chain 1 of 2): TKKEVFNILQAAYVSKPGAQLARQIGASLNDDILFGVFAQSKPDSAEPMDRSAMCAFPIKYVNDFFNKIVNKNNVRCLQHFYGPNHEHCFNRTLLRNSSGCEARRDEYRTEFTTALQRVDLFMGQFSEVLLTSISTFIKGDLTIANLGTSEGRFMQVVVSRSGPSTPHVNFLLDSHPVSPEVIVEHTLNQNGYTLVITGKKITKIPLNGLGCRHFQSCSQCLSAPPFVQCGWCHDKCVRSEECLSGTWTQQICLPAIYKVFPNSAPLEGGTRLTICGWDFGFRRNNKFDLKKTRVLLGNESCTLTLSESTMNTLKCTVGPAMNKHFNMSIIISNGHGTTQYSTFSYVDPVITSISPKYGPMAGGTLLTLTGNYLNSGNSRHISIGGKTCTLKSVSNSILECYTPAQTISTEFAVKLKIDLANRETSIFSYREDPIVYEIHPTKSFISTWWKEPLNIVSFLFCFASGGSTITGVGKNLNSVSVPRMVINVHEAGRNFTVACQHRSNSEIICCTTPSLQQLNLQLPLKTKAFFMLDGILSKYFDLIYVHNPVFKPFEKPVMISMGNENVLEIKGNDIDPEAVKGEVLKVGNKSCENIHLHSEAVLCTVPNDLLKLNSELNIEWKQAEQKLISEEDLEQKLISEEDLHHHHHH
T2 sequence (P08581 27-307 limits assumed, chain 2 of 2): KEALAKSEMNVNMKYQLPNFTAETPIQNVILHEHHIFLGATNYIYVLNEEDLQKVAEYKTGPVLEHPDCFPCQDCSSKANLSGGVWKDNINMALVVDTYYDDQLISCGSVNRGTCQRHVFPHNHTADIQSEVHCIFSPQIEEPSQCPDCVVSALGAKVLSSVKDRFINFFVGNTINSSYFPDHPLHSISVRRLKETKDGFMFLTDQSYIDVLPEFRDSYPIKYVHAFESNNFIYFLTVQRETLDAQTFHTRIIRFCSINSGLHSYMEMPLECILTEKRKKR
Test: SPR 37C, antibody captured
Protocol: (§1) The anti-Met antibodies tested in this example were bivalent monospecific binders of MET.
(§2) Kinetic association (kₐ) and dissociation (kd) rate constants were determined by fitting the real-time sensorgrams to a 1:1 binding model using Scrubber 2.0c curve fitting software. Binding dissociation equilibrium constant (KD) and dissociative half-life (t1/2) were calculated from the kinetic rate constants as: […]

In order of falling Kd:
1. B14  93.4 nM
2. B20  88.3 nM
3. B12  82.2 nM
4. B18  76.5 nM
5. B16  72.5 nM
6. B9  64.9 nM
7. B15  47 nM
8. B11  32.4 nM
9. B10  24.8 nM
10. B17  19.3 nM
11. B19  8.57 nM
12. B13  3.35 nM

In order of rising T½:
1. B12  1.9 min
2. B9  2 min
3. B20  4 min
4. B15  4.7 min
5. B14  4.8 min
6. B16  4.8 min
7. B10  4.9 min
8. B18  4.9 min
9. B17  7.6 min
10. B13  13.2 min
11. B19  14.8 min
12. B11  21.4 min

In order of falling koff:
1. B12  0.00622 s⁻¹
2. B9  0.0057 s⁻¹
3. B20  0.00292 s⁻¹
4. B15  0.00246 s⁻¹
5. B16  0.00243 s⁻¹
6. B14  0.00238 s⁻¹
7. B18  0.00238 s⁻¹
8. B10  0.00236 s⁻¹
9. B17  0.00151 s⁻¹
10. B13  0.000873 s⁻¹
11. B19  0.00078 s⁻¹
12. B11  0.00054 s⁻¹

In order of rising kon:
1. B11  16700 M⁻¹ s⁻¹
2. B14  25500 M⁻¹ s⁻¹
3. B18  31100 M⁻¹ s⁻¹
4. B20  33000 M⁻¹ s⁻¹
5. B16  33500 M⁻¹ s⁻¹
6. B15  52400 M⁻¹ s⁻¹
7. B12  75700 M⁻¹ s⁻¹
8. B17  78200 M⁻¹ s⁻¹
9. B9  87800 M⁻¹ s⁻¹
10. B19  91000 M⁻¹ s⁻¹
11. B10  95300 M⁻¹ s⁻¹
12. B13  261000 M⁻¹ s⁻¹

Target: T3, hMET.mFc (dimeric human MET) (human, UniProt P08581 27-307)
T3 construct: soluble dimeric MET protein
T3 sequence (P08581 other isoform, or with tags, fused parts or gaps limits assumed, chain 1 of 2): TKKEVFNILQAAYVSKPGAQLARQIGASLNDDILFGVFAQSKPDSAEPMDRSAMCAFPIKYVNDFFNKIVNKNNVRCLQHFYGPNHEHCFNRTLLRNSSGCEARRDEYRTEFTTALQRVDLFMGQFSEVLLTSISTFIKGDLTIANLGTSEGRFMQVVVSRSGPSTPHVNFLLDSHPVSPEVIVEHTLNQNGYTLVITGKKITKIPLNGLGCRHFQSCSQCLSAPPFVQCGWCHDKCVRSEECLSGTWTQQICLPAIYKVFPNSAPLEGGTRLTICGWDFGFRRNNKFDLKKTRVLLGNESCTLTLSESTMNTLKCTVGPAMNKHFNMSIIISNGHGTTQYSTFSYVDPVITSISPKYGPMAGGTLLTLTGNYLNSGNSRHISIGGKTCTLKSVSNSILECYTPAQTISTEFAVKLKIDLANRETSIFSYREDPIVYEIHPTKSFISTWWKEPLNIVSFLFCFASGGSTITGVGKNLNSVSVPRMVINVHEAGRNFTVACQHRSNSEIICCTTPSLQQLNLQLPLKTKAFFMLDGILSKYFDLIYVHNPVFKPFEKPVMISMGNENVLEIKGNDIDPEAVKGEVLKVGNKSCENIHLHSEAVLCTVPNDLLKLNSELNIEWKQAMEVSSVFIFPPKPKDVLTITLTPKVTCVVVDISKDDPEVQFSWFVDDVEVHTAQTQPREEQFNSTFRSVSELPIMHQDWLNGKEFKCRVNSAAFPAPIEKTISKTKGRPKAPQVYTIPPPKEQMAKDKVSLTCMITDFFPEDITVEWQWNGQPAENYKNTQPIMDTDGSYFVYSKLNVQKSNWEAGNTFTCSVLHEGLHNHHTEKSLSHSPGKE
T3 sequence (P08581 27-307 limits assumed, chain 2 of 2): as the sequence (P08581 27-307 limits assumed, chain 2 of 2) above
Test: SPR 37C, antibody captured
Protocol: as §1, §2

In order of falling Kd:
1. B15  2.33 nM
2. B12  1.62 nM
3. B18  1.42 nM
4. B9  1.19 nM
5. B11  1.16 nM
6. B16  1.12 nM
7. B14  1.02 nM
8. B19  0.878 nM
9. B10  0.605 nM
10. B20  0.467 nM
11. B17  0.367 nM
12. B13  0.244 nM

In order of falling T½:
1. B17  107 min
2. B13  74.1 min
3. B20  70.2 min
4. B10  62.4 min
5. B11  43.8 min
6. B16  39.1 min
7. B19  36.8 min
8. B14  34 min
9. B18  21.3 min
10. B15  19.8 min
11. B9  12.9 min
12. B12  10.1 min

In order of rising koff:
1. B17  0.000108 s⁻¹
2. B13  0.000156 s⁻¹
3. B20  0.000165 s⁻¹
4. B10  0.000185 s⁻¹
5. B11  0.000264 s⁻¹
6. B16  0.000295 s⁻¹
7. B19  0.000314 s⁻¹
8. B14  0.000339 s⁻¹
9. B18  0.000542 s⁻¹
10. B15  0.000584 s⁻¹
11. B9  0.000893 s⁻¹
12. B12  0.00114 s⁻¹

In order of rising kon:
1. B11  228000 M⁻¹ s⁻¹
2. B15  251000 M⁻¹ s⁻¹
3. B16  265000 M⁻¹ s⁻¹
4. B17  293000 M⁻¹ s⁻¹
5. B10  306000 M⁻¹ s⁻¹
6. B14  333000 M⁻¹ s⁻¹
7. B20  352000 M⁻¹ s⁻¹
8. B19  357000 M⁻¹ s⁻¹
9. B18  382000 M⁻¹ s⁻¹
10. B13  639000 M⁻¹ s⁻¹
11. B12  705000 M⁻¹ s⁻¹
12. B9  750000 M⁻¹ s⁻¹

Target: T1, human MET on cells
Test: cell-based or functional assay
Remark: another data set of the same source

In order of rising “% Inhibition, HEK293/SRE-Luc Blocking Activity (HGF, 1 h mAb pre-bind)” value:
1. B3  45%
2. B1  47%
3. B2  69%
4. B4  74%

In order of rising “Fold Response, Ligand (HGF)-Independent HEK293/SRE-Luc Activation” value:
1. B1  1.2 fold
2. B3  1.8 fold
3. B4  2.3 fold
4. B2  4.3 fold

In order of falling “IC50, HEK293/SRE-Luc Blocking Activity (HGF, 1 h mAb pre-bind)” value:
1. B1  2.3 nM
2. B3  1.6 nM
3. B2  0.013 nM
4. B4  0.0078 nM

In order of rising “EC50, Ligand (HGF)-Independent HEK293/SRE-Luc Activation” value:
1. B4  0.047 nM
2. B2  0.19 nM
